Source: PMC6984350 (Structure (London, England : 1993), 2018)

T1: Filamin A domains 4-6, wild type (human, UniProt P21333 571-861)
T1 sequence (looked up): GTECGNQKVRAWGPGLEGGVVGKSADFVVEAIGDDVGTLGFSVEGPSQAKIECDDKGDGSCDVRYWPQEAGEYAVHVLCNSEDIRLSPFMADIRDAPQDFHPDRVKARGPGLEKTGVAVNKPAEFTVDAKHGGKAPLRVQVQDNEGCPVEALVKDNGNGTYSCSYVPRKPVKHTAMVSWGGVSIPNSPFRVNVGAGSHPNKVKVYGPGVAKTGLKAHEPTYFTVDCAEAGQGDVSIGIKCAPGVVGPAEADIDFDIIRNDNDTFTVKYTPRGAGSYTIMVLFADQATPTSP

B1: PTPN12 634–709 (domain or fragment, UniProt Q05209 634-709, looked up)
chain: ATSTESISTRKVLPMSIARHNIAGTTHSGAEKDVDVSEDSPPPLPERTPESFVLASEHNTPVRSEWSELQSQERSE
B2: PTPN12 600–673 (domain or fragment, UniProt Q05209 600-673, looked up)
chain: PLHSDDSDSDERNSDGAVTQNKTNISTASATVSAATSTESISTRKVLPMSIARHNIAGTTHSGAEKDVDVSEDS
B3: PTPN12 C-terminal domain (600–780) (domain or fragment, UniProt Q05209 600-780, looked up)
chain: PLHSDDSDSDERNSDGAVTQNKTNISTASATVSAATSTESISTRKVLPMSIARHNIAGTTHSGAEKDVDVSEDSPPPLPERTPESFVLASEHNTPVRSEWSELQSQERSEQKKSEGLITSENEKCDHPAGGIHYEMCIECPPTFSDKREQISENPTEATDIGFGNRCGKPKGPRDPPSEWT
B4: PTPN12–600-709 (domain or fragment, UniProt Q05209 600-709, looked up)
chain: PLHSDDSDSDERNSDGAVTQNKTNISTASATVSAATSTESISTRKVLPMSIARHNIAGTTHSGAEKDVDVSEDSPPPLPERTPESFVLASEHNTPVRSEWSELQSQERSE

Target: T1, Filamin A domains 4-6, wild type
Test: SPR

Row | Binder | Kd
1 | B1 | 0.27 µM
2 | PLHSDDSDSDERNSDGAVTQNKTNISTASATVSAA (domain or fragment, UniProt Q05209 600-634, looked up) [PTPN12–600-634] | > 10000 µM
3 | B2 | > 10000 µM
4 | B3 | ~0.33 µM
5 | B4 | 0.32 µM
